Measurements: patent US20180193423A1 (LONGEVITY BIOTECH, published 2018)
Where no end group is shown, it is not given here. [ ]: non-standard residue; d: D form. ACPC = 2-aminocyclopentanecarboxylic acid; β3hT = C[C@@H](O)[C@H](N)CC(=O)O; β3hN = NC(=O)C[C@H](N)CC(=O)O; β3hL = CC(C)C[C@H](N)CC(=O)O; β3hK = NCCCC[C@H](N)CC(=O)O; β3hV = CC(C)[C@H](N)CC(=O)O; β3hD = NC(CC(=O)O)CC(=O)O; β3hS = N[C@@H](CO)CC(=O)O

B1: LBT-V107 (peptide)
peptide: HS[β3hD]AVF[β3hT]DNY[β3hT]RLR[β3hK]QLA[β3hV]KKY[β3hL]NAI[β3hL]N
modifications: not fully specified (C-terminus); printed as HSdAVFtDNYtRLRkQLAvKKYlNAIlN
B2: LBT-V128 (peptide)
peptide: H[dF]DA[β3hV]FTDNY[β3hT]RLR[β3hK]QLA[β3hV]KKY[β3hL]NAI[β3hL]N
modifications: not fully specified (C-terminus); printed as HfDAvFTDNYtRLRkQLAvKKYlNAIlN
B3: LBT-V105 (peptide)
peptide: H[β3hS]DA[β3hV]FTDNY[β3hT]RLR[β3hK]QLA[β3hV]KKY[β3hL]NAI[β3hL]N
modifications: not fully specified (C-terminus); printed as HsDAvFTDNYtRLRkQLAvKKYlNAIlN
B4: LBT-V103 (peptide)
peptide: H[ACPC]DA[ACPC]FTDNY[β3hT]RLR[β3hK]QLA[β3hV]KKY[β3hL]NAI[β3hL]N
modifications: not fully specified (C-terminus); printed as HxDAxFTDNYtRLRkQLAvKKYlNAIlN
B5: LBT-V104 (peptide)
peptide: H[ACPC]DA[β3hV]FTDNY[β3hT]RLR[β3hK]QLA[β3hV]KKY[β3hL]NAI[β3hL]N
modifications: not fully specified (C-terminus); printed as HxDAvFTDNYtRLRkQLAvKKYlNAIlN
B6: LBT-V106 (peptide)
peptide: H[β3hS]DA[β3hV]FTD[β3hN]Y[β3hT]RLR[β3hK]QLA[β3hV]KKY[β3hL]NAI[β3hL]N
modifications: not fully specified (C-terminus); printed as HsDAvFTDnYtRLRkQLAvKKYlNAIlN
B7: LBT-V101 (peptide)
peptide: HSDAVFTDNY[β3hT]RLR[β3hK]QLA[β3hV]KKY[β3hL]NAI[β3hL]N
modifications: not fully specified (C-terminus); printed as HSDAVFTDNYtRLRkQLAvKKYlNAIlN
B8: LBT-V127 (peptide)
peptide: H[dF]DA[ACPC]FTDNY[β3hT]RLR[β3hK]QLA[β3hV]KKY[β3hL]NAI[β3hL]N
modifications: not fully specified (C-terminus); printed as HfDAxFTDNYtRLRkQLAvKKYlNAIlN
B9: LBT-V130 (peptide)
peptide: H[dF][β3hD]AVF[β3hT]DNY[β3hT]RLR[β3hK]QLA[β3hV]KKY[β3hL]NAI[β3hL]N
modifications: not fully specified (C-terminus); printed as HfdAVFtDNYtRLRkQLAvKKYlNAIlN
B10: LBT-V129 (peptide)
peptide: H[dF]DA[β3hV]FTD[β3hN]Y[β3hT]RLR[β3hK]QLA[β3hV]KKY[β3hL]NAI[β3hL]N
modifications: not fully specified (C-terminus); printed as HfDAvFTDnYtRLRkQLAvKKYlNAIlN
B11: LBT-V126 (peptide)
peptide: H[dF]DAVFTDNY[β3hT]RLR[β3hK]QLA[β3hV]KKY[β3hL]NAI[β3hL]N
modifications: not fully specified (C-terminus); printed as HfDAVFTDNYtRLRkQLAvKKYlNAIlN

The binders below were run against T1, VPAC1 receptor (UniProt P32241 31-457, limits assumed) (assay: cell-based or functional assay).
T1 sequence (looked up): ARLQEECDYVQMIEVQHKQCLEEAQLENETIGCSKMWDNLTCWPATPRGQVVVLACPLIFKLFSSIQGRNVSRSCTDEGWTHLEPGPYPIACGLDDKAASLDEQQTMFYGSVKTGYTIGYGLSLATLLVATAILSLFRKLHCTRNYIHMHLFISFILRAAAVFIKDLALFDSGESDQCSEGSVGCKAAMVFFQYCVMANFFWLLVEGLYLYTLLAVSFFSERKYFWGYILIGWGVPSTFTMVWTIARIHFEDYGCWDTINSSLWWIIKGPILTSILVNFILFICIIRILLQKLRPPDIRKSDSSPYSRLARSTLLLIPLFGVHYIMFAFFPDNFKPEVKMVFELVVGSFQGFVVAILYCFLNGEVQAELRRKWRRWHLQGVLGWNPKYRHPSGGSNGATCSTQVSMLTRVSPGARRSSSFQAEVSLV
For B1, the “EC 50 vpac1 (Molar), cell-based cAMP assay” value (from here on “EC 50 vpac1 (Molar)”) was > 1 µM. For B2, the “EC 50 vpac1 (Molar)” value was 0.0712 µM. B3 was tested, and the “EC 50 vpac1 (Molar)” value was 0.0644 µM. For B4, the “EC 50 vpac1 (Molar)” value was 0.000358 µM. B5 was tested, and the “EC 50 vpac1 (Molar)” value was 0.00443 µM. With B6 the “EC 50 vpac1 (Molar)” value was 298 µM. With B7 the “EC 50 vpac1 (Molar)” value was 0.00217 µM. With B8 the “EC 50 vpac1 (Molar)” value was 0.0893 µM. In the case of B9, the “EC 50 vpac1 (Molar)” value is reported as 0.912 µM. For B10, the “EC 50 vpac1 (Molar)” value was > 1 µM. With B11 the “EC 50 vpac1 (Molar)” value was 619 µM.

These binders were tested against T2, VPAC2 receptor (UniProt P41587 24-438, limits assumed) (assay: cell-based or functional assay).
T2 sequence (looked up): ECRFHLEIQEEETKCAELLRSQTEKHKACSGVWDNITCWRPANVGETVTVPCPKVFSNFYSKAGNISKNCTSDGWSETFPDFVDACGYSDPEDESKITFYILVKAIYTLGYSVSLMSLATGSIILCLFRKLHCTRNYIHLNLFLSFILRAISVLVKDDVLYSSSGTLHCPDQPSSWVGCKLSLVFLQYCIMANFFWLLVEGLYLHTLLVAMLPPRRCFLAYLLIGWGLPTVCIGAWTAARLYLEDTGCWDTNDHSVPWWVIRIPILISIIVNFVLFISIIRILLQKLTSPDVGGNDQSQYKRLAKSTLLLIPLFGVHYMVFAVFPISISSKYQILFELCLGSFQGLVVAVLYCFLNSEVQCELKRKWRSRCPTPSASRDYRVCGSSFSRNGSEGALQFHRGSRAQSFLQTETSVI
B1 was tested, and the “EC50 vpac2 (Molar), cell-based cAMP assay” value (from here on “EC50 vpac2 (Molar)”) was > 1 µM. In the case of B2, the “EC50 vpac2 (Molar)” value is reported as 0.0503 µM. B3 was tested, and the “EC50 vpac2 (Molar)” value was 0.716 µM. For B4, the “EC50 vpac2 (Molar)” value was 0.0796 µM. With B5 the “EC50 vpac2 (Molar)” value was 0.262 µM. With B6 the “EC50 vpac2 (Molar)” value was 0.503 µM. For B7, the “EC50 vpac2 (Molar)” value was 8260 µM. B8 was tested, and the “EC50 vpac2 (Molar)” value was > 1 µM. With B9 the “EC50 vpac2 (Molar)” value was 0.609 µM. With B10 the “EC50 vpac2 (Molar)” value was 0.989 µM. B11 was tested, and the “EC50 vpac2 (Molar)” value was 0.344 µM.

Molecular target: T1, VPAC1 receptor
Assay: cell-based or functional assay
Remark: another data set of the same source
For B7, the “EC50 of ligand mediated receptor internalization (chemiluminescent signal, PathHunter eXpress CHO-K1 VIPR1 cells)” value was 0.0102 µM.
